# Assay results as given in patent US20100260668A1 (published 2010).
# B1: DVD516 (bispecific antibody, human IgG1, lambda)
# heavy: not shown
# light: DIQMTQSPSSLSASVGDRVTITCRASQVIRRSLAWYQQKPGKAPKLLIYAASNLASGVPSRFSGSGSGTDFTLTISSLQPEDFATYYCQQSNTSPLTFGQGTKVEIKRTVAAPQAVVTQESALTTSPGETVTLTCRSSTGAVTTSNYANWVQEKPDHLFTGLIGGTNNRAPGVPARFSGSLIGDKAALTITGAQTEDEAIYFCALWYSNHWVFGGGTKLTVLGQPKAAPSVTLFPPSSEELQANKATLVCLISDFYPGAVTVAWKADSSPVKAGVETTTPSKQSNNKYAASSYLSLTPEQWKSHRSYSCQVTHEGSTVEKTVAPTECS
# notes: Outer AB071 (VEGF), inner AB073 (DLL4); HC linker short, LC linker short; also called DVD-Ig DVD516
# B2: DVD528 (bispecific antibody, human IgG1, lambda)
# heavy: not shown
# light: B1 light
# notes: Outer AB071 (VEGF), inner AB073 (DLL4); HC linker long, LC linker short; also called DVD-Ig DVD528
# B3: DVD498 (bispecific antibody, human IgG1, kappa)
# heavy: not shown
# light: DIQMTQSPSSLSASVGDRVTITCRASQVIRRSLAWYQQKPGKAPKLLIYAASNLASGVPSRFSGSGSGTDFTLTISSLQPEDFATYYCQQSNTSPLTFGQGTKVEIKRTVAAPSVFIFPPDIQMTQSSSYLSVSLGGRVTITCKASDHINNWLAWYQQKPGNAPRLLISGATSLETGVPSRFSGSGSGKDYTLSITSLQTEDVATYYCQQYWSIPLTFGAGTKLELKRTVAAPSVFIFPPSDEQLKSGTASVVCLLNNFYPREAKVQWKVDNALQSGNSQESVTEQDSKDSTYSLSSTLTLSKADYEKHKVYACEVTHQGLSSPVTKSFNRGEC
# notes: Outer AB071 (VEGF), inner AB072 (DLL4); HC linker long, LC linker long; also called DVD-Ig DVD498
# B4: DVD510 (bispecific antibody, human IgG1, kappa)
# heavy: not shown
# light: B3 light
# notes: Outer AB071 (VEGF), inner AB072 (DLL4); HC linker short, LC linker long; also called DVD-Ig DVD510
# B5: DVD446 (bispecific antibody, human IgG1, kappa)
# heavy: not shown
# light: DIQMTQSPSSLSASVGDRVTITCRASQVIRRSLAWYQQKPGKAPKLLIYAASNLASGVPSRFSGSGSGTDFTLTISSLQPEDFATYYCQQSNTSPLTFGQGTKVEIKRTVAAPDIVMTQSPDSLAVSLGERATISCRASESVDNYGISFMKWFQQKPGQPPKLLIYAASNQGSGVPDRFSGSGSGTDFTLTISSLQAEDVAVYYCQQSKEVPWTFGGGTKVEIKRTVAAPSVFIFPPSDEQLKSGTASVVCLLNNFYPREAKVQWKVDNALQSGNSQESVTEQDSKDSTYSLSSTLTLSKADYEKHKVYACEVTHQGLSSPVTKSFNRGEC
# notes: Outer AB071 (VEGF), inner AB069 (DLL4); HC linker short, LC linker short; also called DVD-Ig DVD446
# B6: DVD458 (bispecific antibody, human IgG1, kappa, L234A L235A)
# heavy: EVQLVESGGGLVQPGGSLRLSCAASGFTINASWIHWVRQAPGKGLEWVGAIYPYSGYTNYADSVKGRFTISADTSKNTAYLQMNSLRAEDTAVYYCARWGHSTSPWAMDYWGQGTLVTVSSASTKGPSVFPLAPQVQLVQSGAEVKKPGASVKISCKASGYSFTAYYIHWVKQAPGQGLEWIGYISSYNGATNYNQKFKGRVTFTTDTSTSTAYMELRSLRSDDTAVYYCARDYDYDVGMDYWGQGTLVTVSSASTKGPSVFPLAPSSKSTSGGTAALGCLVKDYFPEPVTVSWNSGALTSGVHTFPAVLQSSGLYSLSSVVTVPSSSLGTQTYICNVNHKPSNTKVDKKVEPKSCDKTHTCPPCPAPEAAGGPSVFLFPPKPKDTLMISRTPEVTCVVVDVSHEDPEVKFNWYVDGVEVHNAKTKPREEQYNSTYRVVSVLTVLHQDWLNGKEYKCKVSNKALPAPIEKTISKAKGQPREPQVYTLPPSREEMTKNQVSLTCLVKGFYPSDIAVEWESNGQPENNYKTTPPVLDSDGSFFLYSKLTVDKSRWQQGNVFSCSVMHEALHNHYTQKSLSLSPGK
# light: B5 light
# notes: Outer AB071 (VEGF), inner AB069 (DLL4); HC linker long, LC linker short; also called DVD-Ig DVD458
# B7: DVD480 (bispecific antibody, human IgG1, kappa)
# heavy: not shown
# light: DIQMTQSPSSLSASVGDRVTITCRASQVIRRSLAWYQQKPGKAPKLLIYAASNLASGVPSRFSGSGSGTDFTLTISSLQPEDFATYYCQQSNTSPLTFGQGTKVEIKRTVAAPDIQMTQSPSSLSASVGDRVTITCRASQDVSTAVAWYQQKPGKAPKLLIYSASFLYSGVPSRFSGSGSGTDFTLTISSLQPEDFATTYYCQQSYTGTVTFGQGTKVEIKRTVAAPSVFIFPPSDEQLKSGTASVVCLLNNFYPREAKVQWKVDNALQSGNSQESVTEQDSKDSTYSLSSTLTLSKADYEKHKVYACEVTHQGLSSPVTKSFNRGEC
# notes: Outer AB071 (VEGF), inner AB015 (DLL4); HC linker long, LC linker short; also called DVD-Ig DVD480
# B8: DVD474 (bispecific antibody, human IgG1, kappa)
# heavy: not shown
# light: DIQMTQSPSSLSASVGDRVTITCRASQVIRRSLAWYQQKPGKAPKLLIYAASNLASGVPSRFSGSGSGTDFTLTISSLQPEDFATYYCQQSNTSPLTFGQGTKVEIKRTVAAPSVFIFPPDIQMTQSPSSLSASVGDRVTITCRASQDVSTAVAWYQQKPGKAPKLLIYSASFLYSGVPSRFSGSGSGTDFTLTISSLQPEDFATTYYCQQSYTGTVTFGQGTKVEIKRTVAAPSVFIFPPSDEQLKSGTASVVCLLNNFYPREAKVQWKVDNALQSGNSQESVTEQDSKDSTYSLSSTLTLSKADYEKHKVYACEVTHQGLSSPVTKSFNRGEC
# notes: Outer AB071 (VEGF), inner AB015 (DLL4); HC linker long, LC linker long; also called DVD-Ig DVD474
# B9: DVD486 (bispecific antibody, human IgG1, kappa)
# heavy: not shown
# light: B8 light
# notes: Outer AB071 (VEGF), inner AB015 (DLL4); HC linker short, LC linker long; also called DVD-Ig DVD486
# B10: DVD522 (bispecific antibody, human IgG1, kappa, lambda, L234A L235A)
# heavy: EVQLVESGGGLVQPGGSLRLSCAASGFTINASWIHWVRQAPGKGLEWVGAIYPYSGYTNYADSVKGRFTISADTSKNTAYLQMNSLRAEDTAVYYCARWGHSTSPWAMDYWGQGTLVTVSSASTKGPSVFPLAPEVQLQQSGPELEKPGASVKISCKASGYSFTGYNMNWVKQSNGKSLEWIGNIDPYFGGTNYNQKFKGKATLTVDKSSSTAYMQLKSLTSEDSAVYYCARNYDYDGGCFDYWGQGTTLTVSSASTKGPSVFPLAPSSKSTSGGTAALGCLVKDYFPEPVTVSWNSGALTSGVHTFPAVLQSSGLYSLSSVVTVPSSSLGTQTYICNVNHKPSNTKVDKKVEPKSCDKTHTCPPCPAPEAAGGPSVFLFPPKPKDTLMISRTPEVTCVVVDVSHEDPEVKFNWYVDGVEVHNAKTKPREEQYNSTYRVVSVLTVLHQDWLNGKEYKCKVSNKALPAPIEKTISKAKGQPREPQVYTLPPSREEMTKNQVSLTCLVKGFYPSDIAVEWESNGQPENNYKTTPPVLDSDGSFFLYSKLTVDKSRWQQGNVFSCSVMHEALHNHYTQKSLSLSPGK
# light: DIQMTQSPSSLSASVGDRVTITCRASQVIRRSLAWYQQKPGKAPKLLIYAASNLASGVPSRFSGSGSGTDFTLTISSLQPEDFATYYCQQSNTSPLTFGQGTKVEIKRTVAAPSVFIFPPQAVVTQESALTTSPGETVTLTCRSSTGAVTTSNYANWVQEKPDHLFTGLIGGTNNRAPGVPARFSGSLIGDKAALTITGAQTEDEAIYFCALWYSNHWVFGGGTKLTVLGQPKAAPSVTLFPPSSEELQANKATLVCLISDFYPGAVTVAWKADSSPVKAGVETTTPSKQSNNKYAASSYLSLTPEQWKSHRSYSCQVTHEGSTVEKTVAPTECS
# notes: Outer AB071 (VEGF), inner AB073 (DLL4); HC linker long, LC linker long; also called DVD-Ig DVD522
# B11: DVD534 (bispecific antibody, human IgG1, kappa, lambda, L234A L235A)
# heavy: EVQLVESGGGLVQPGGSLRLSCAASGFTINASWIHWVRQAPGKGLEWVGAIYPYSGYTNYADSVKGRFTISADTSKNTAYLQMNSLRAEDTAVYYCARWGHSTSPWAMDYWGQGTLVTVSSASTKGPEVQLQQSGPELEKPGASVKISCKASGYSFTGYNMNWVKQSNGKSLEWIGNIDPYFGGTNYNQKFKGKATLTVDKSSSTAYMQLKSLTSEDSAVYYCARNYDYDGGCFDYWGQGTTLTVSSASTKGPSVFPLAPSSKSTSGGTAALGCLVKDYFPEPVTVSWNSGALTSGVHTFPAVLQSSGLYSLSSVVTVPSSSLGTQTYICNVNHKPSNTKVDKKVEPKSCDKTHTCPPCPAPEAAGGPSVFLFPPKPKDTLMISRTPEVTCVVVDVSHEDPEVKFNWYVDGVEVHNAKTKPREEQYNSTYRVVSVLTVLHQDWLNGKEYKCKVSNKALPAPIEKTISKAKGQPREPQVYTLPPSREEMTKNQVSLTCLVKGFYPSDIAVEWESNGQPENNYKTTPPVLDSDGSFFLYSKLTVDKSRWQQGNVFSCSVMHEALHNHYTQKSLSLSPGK
# light: B10 light
# notes: Outer AB071 (VEGF), inner AB073 (DLL4); HC linker short, LC linker long; also called DVD-Ig DVD534
# B12: DVD452 (bispecific antibody, human IgG1, kappa, L234A L235A)
# heavy: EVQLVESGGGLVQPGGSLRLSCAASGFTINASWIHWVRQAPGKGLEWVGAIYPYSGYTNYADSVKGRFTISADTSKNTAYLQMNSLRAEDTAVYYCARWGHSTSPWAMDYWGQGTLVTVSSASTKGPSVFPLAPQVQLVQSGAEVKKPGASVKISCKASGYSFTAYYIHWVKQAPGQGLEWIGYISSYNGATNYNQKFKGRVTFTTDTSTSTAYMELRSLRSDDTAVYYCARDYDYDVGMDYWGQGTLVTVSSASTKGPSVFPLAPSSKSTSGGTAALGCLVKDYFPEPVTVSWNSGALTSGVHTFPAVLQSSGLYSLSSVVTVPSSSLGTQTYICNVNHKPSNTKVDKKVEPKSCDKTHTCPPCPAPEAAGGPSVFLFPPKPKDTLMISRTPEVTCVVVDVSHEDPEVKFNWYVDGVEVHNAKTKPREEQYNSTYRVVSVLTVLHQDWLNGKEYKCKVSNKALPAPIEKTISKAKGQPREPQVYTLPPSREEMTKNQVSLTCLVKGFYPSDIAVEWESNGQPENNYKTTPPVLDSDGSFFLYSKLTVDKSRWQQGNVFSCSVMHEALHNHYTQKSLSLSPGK
# light: DIQMTQSPSSLSASVGDRVTITCRASQVIRRSLAWYQQKPGKAPKLLIYAASNLASGVPSRFSGSGSGTDFTLTISSLQPEDFATYYCQQSNTSPLTFGQGTKVEIKRTVAAPSVFIFPPDIVMTQSPDSLAVSLGERATISCRASESVDNYGISFMKWFQQKPGQPPKLLIYAASNQGSGVPDRFSGSGSGTDFTLTISSLQAEDVAVYYCQQSKEVPWTFGGGTKVEIKRTVAAPSVFIFPPSDEQLKSGTASVVCLLNNFYPREAKVQWKVDNALQSGNSQESVTEQDSKDSTYSLSSTLTLSKADYEKHKVYACEVTHQGLSSPVTKSFNRGEC
# notes: Outer AB071 (VEGF), inner AB069 (DLL4); HC linker long, LC linker long; also called DVD-Ig DVD452
# B13: DVD464 (bispecific antibody, human IgG1, kappa)
# heavy: not shown
# light: B12 light
# notes: Outer AB071 (VEGF), inner AB069 (DLL4); HC linker short, LC linker long; also called DVD-Ig DVD464
# B14: DVD492 (bispecific antibody, human IgG1, kappa)
# heavy: not shown
# light: DIQMTQSPSSLSASVGDRVTITCRASQVIRRSLAWYQQKPGKAPKLLIYAASNLASGVPSRFSGSGSGTDFTLTISSLQPEDFATYYCQQSNTSPLTFGQGTKVEIKRTVAAPDIQMTQSSSYLSVSLGGRVTITCKASDHINNWLAWYQQKPGNAPRLLISGATSLETGVPSRFSGSGSGKDYTLSITSLQTEDVATYYCQQYWSIPLTFGAGTKLELKRTVAAPSVFIFPPSDEQLKSGTASVVCLLNNFYPREAKVQWKVDNALQSGNSQESVTEQDSKDSTYSLSSTLTLSKADYEKHKVYACEVTHQGLSSPVTKSFNRGEC
# notes: Outer AB071 (VEGF), inner AB072 (DLL4); HC linker short, LC linker short; also called DVD-Ig DVD492
# B15: DVD504 (bispecific antibody, human IgG1, kappa)
# heavy: not shown
# light: B14 light
# notes: Outer AB071 (VEGF), inner AB072 (DLL4); HC linker long, LC linker short; also called DVD-Ig DVD504
# Target: T1, DLL4 ECD His tag (UniProt Q9NR61 27-529, limits assumed)
# T1 construct: extracellular domain; also called DLL ECD His tag
# Assay: SPR (Biacore), DVD-Ig captured, DLL4 as analyte
Kd [nM],koff [s⁻¹],kon [M⁻¹ s⁻¹],Binder
4.99,0.000583,117000,B1
4.81,0.00152,316000,B2
1.45,9.36e-05,64600,B3
1.55,8.84e-05,56900,B4
5.81,0.000169,29100,B5
16.2,0.000261,16100,B6
3.38,0.000179,53000,B7
1.04,–,–,B8
2.13,–,–,B9
10.5,0.00121,115000,B10
5.78,0.002,346000,B11
9.3,0.00022,23700,B12
5.53,0.000182,32800,B13
1.07,8.35e-05,78200,B14
1.26,7.32e-05,58100,B15
